What was measured:
[1] = molecular target: microtubules (MTs) of cultured rat hippocampal neurons (rat (endogenous in hippocampal neurons)) (UniProt P68370); experiment: FRAP fitted with a reaction-diffusion simulation
[2] = molecular target: microtubules (MTs) of cultured rat hippocampal neurons (rat (endogenous in hippocampal neurons)) (UniProt P68370); experiment: FRAP fitted with a reaction-diffusion simulation; remark: listed apart in the source
[3] = molecular target: microtubules (MTs) of cultured rat hippocampal neurons (rat (endogenous in hippocampal neurons)) (UniProt P68370); experiment: FRAP fitted with a reaction-diffusion-advection simulation

Kd [1] [nM] | Kd [2] [nM] | Kd [3] [nM] | Substance
1000 | – | – | GFP-MAP2B expressed in cultured rat hippocampal neurons (from UniProt P11137-1 1-1827) (natural protein)
4500 | 1000 | 3000 | GFP-MAP2C, wild type (pAcGFP-His-MAP2C), expressed in cultured rat hippocampal neurons (from UniProt P11137-2 1-471) (natural protein)
